Test results reported in patent US20240352134A1.

Tests used:
human CCR8 (human) [1] = target: human CCR8 (human) (UniProt P51685); assay: cell-based or functional assay
human CCR8 (human) [2] = target: human CCR8 (human) (UniProt P51685); assay: binding affinity EC50, comparison of Table 12 (FACS on CCR8-expressing cells)

human CCR8 (human), sequence (P51685 whole entry): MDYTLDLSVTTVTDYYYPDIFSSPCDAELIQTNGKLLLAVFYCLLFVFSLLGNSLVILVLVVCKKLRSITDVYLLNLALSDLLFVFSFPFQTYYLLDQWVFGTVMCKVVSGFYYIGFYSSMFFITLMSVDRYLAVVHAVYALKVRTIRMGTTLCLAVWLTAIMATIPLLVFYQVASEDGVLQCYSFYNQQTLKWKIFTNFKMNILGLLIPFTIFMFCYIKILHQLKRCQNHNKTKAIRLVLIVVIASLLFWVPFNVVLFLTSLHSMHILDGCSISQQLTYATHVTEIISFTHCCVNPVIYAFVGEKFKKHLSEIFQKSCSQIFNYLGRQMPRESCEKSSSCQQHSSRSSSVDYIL

B1: SRF-114 (antibody, from another filing, V domains shown)
VH: QVQLVQSGAEVKKPGASVKVSCKASGYTFTSYYMHWVRQAPGQGLEWMGIINPSGGSTSYAQKFQGRVTMTRDTSTSTVYMELSSLRSEDTAVYYCARAVRNRFRFDYWGQGTLVTVSS
VL: QSALTQPASVSGSPGQSITISCTGTSSDVGSYNLVSWYQQHPGKAPKLMIYEVSKRPSGVSNRFSGSKSGNTASLTISGLQAEDEADYYCSSYAGSSTFVVFGGGTKLTVL
- Signal block Ca2+ (human CCR8 (human) [1]): 179 nM
- EC50 (human CCR8 (human) [2]): 3.2 nM
